Test results taken from patent publication US20120149881A1.
pKd: −log10 of the molar value.

Target: human IgE with the M1′ sequence (long form of membrane IgE) expressed on transduced BJAB or Daudi cells (human) (UniProt P01854)
Assay: number printed in the titration panel; FIG. 3M calls these numbers 'Scatchard Results' (BJAB-Long cells)

Sequence of human IgE with the M1′ sequence (long form of membrane IgE) expressed on transduced BJAB or Daudi cells (human) (P01854 116-546 I515L limits assumed): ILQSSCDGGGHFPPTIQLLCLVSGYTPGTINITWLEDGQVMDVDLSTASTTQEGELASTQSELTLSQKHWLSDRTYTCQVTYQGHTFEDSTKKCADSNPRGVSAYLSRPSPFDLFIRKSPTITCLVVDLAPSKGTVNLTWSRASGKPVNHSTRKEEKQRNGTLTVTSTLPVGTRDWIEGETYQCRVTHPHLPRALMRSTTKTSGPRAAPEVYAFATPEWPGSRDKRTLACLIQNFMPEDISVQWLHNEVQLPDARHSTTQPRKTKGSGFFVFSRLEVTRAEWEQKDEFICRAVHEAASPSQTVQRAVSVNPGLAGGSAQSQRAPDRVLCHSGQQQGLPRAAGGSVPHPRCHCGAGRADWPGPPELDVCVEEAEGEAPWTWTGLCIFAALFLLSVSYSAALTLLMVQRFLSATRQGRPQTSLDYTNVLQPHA

pKd: 10.40
Substance: anti-human IgE antibody MAE11
